Consider one substance from PMC12065890.

In assay [1] the target is Amh C-terminal domain (SPR protein) (zebrafish). The assay can be described thus: SPR. A general note: SPR reads the build-up and loss of mass on a sensor chip optically.
Assay [2] deals with full-length Amh (SPR protein) (zebrafish). Nature of the assay: SPR.

“Bmpr2a domain protein (protein kinase domain of Bmpr2a, SPR protein) (domain or fragment)”: the figures for the Kd in assay [1] and in assay [2] were 1390 nM and 116 nM, respectively.
